From patent US20240181006A1, “POLYPEPTIDES BINDING ADAMTS5, MMP13 AND AGGRECAN” (Merck Patent GmbH, priority 2017, published 2024)

How the values were obtained:
Experiment in all cases: cell-based or functional assay
[1] = target: dog MMP13 (activated) (dog)
[2] = target: human MMP13 (activated) (human) (UniProt P45452)
[3] = target: cynomolgus MMP13 (activated) (cynomolgus)
[4] = target: bovine MMP13 (activated) (bovine) (UniProt O77656)
[5] = target: rat MMP13 (activated) (rat) (UniProt P23097)

TIMP-2 (from UniProt P16035 27-220)
IC50, dog fluorogenic peptide assay [1]: 0.9 nM | IC50, human collagenolytic assay [2]: 0.4 nM | IC50, human fluorogenic collagen assay [2]: 2.4 nM | IC50, human fluorogenic peptide assay [2]: 0.5 nM | IC50, cyno fluorogenic peptide assay [3]: 0.4 nM | IC50, bovine fluorogenic peptide assay [4]: 1.1 nM | IC50, rat fluorogenic peptide assay [5]: 0.4 nM
